Measurements as given in the supplement of paper PMC12783771.
Substitutions are numbered along the chain they refer to. ± gives the standard deviation of the averaged measurements.

B1: library; a variant is named by its letters at X, in order (parent)
chain: MNIQIGELAKRTACPVVTIRFYEQEGLLPPPGRSRGNFRLYGEEHVERLQFIRHCRSLDMPLSDVRTLLSYRKRPDQDCGEVXMLLDEHIRQVESRIGALLELKHHLVELREACSGARPAQSCGILQXLSXCVCXTRGTTAHXSD
B2: library; a variant is named by its letters at X, in order (parent)
chain: B1 chain with D64X, K104X, L107X

What was measured:
[1] = variants of: B1; test: sfGFP reporter fluorescence (15 h) (µM FITC); higher = higher leak; details: library round: Round 2; ligand: none
Experimental: (§1)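 Cell-free biosensing: 1 µL Echo-assembled CFE reactions with linear PbrR variant templates (5 nM) and pPbrR-sfGFP reporter, with 1 µM Pb, 30 µM Zn or no ligand; endpoint sfGFP fluorescence after 15 h at 30 °C calibrated as µM FITC. Round 2 ML-predicted PbrR mutants; up to 3 biological replicates.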

[2] = variants of: B1; test: sfGFP reporter fluorescence (15 h) (µM FITC); higher = stronger transcriptional activation; details: library round: Round 2
Experimental: as §1

[3] = variants of: B2; test: sfGFP reporter fluorescence (15 h) (µM FITC); higher = higher leak; details: library round: Round 3; ligand: none
Experimental: (§2)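 Cell-free biosensing: 1 µL Echo-assembled CFE reactions with linear PbrR variant templates (5 nM) and pPbrR-sfGFP reporter, with 1 µM Pb, 30 µM Zn or no ligand; endpoint sfGFP fluorescence after 15 h at 30 °C calibrated as µM FITC. Round 3 ML-predicted PbrR mutants; up to 3 biological replicates.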

[4] = variants of: B2; test: sfGFP reporter fluorescence (15 h) (µM FITC); higher = stronger transcriptional activation; details: library round: Round 3
Experimental: as §2

Row | Variant | sfGFP reporter fluorescence [1] | sfGFP reporter fluorescence ([2]; ligand: 1 µM Pb) | sfGFP reporter fluorescence ([2]; ligand: 30 µM Zn) | sfGFP reporter fluorescence [3] | sfGFP reporter fluorescence ([4]; ligand: 1 µM Pb) | sfGFP reporter fluorescence ([4]; ligand: 30 µM Zn)
1 | NGCDP P61N H106A | 0.0622 ± 0.0038 | 0.166 ± 0.0088 | 0.457 ± 0.079 |  |  | 
2 | NGDDP D64K V108E R111L | 0.0746 ± 0.0031 | 0.165 ± 0.012 | 1.8 ± 0.29 |  |  | 
3 | SADAP | 0.0791 ± 0.013 | 0.19 ± 0.019 | 2.33 ± 0.44 |  |  | 
4 | NGAKP L107V | 0.173 ± 0.011 | 0.513 ± 0.055 | 3.38 ± 0.24 |  |  | 
5 | NGDDM I90L I125L | 0.0615 ± 0.0043 | 0.0526 ± 0.0027 | 0.0576 ± 0.0035 |  |  | 
6 | NGDDP D64K K104V R111A | 0.0829 ± 0.0096 | 0.354 ± 0.017 | 2.2 ± 0.44 |  |  | 
7 | NGCDA L107C | 0.757 ± 0.089 | 1.68 ± 0.17 | 3.37 ± 0.31 |  |  | 
8 | MGAAP | 0.0477 ± 0.0018 | 0.0933 ± 0.0042 | 0.0535 ± 0.0035 |  |  | 
9 | TGCDI | 0.0463 ± 0.0019 | 0.0711 ± 0.0029 | 0.0916 ± 0.0046 |  |  | 
10 | TGCDL | 0.045 ± 0.00089 | 0.0743 ± 0.011 | 0.0958 ± 0.0017 |  |  | 
11 | TGCDA | 0.0468 ± 0.0016 | 0.0758 ± 0.0041 | 0.0857 ± 0.0083 |  |  | 
12 | TGCDT | 0.0478 ± 0.0007 | 0.0731 ± 0.0033 | 0.0847 ± 0.0041 |  |  | 
13 | NGAAS | 0.0633 ± 0.001 | 0.107 ± 0.011 | 1.08 ± 0.1 |  |  | 
14 | NGADP V133P C134V | 0.0817 ± 0.0086 | 0.0967 ± 0.019 | 2.1 ± 0.36 |  |  | 
15 | NGDAP D64T Q127G | 0.0728 ± 0.0058 | 0.121 ± 0.013 | 1.87 ± 0.15 |  |  | 
16 | SGDAA | 0.0628 ± 0.0043 | 0.0745 ± 0.0027 | 0.449 ± 0.062 |  |  | 
17 | SGDAY | 0.0491 ± 0.0015 | 0.0749 ± 0.0032 | 0.399 ± 0.039 |  |  | 
18 | NGAAP L107C | 1.86 ± 0.29 | 2.29 ± 0.21 | 3.05 ± 0.55 |  |  | 
19 | TGAYC | 0.05432 ± 0.00051 | 0.085 ± 0.0051 | 0.699 ± 0.064 |  |  | 
20 | NGCDP I125V L129M | 0.0493 ± 0.0017 | 0.0435 ± 0.0022 | 0.0493 ± 0.003 |  |  | 
21 | TGAPW | 0.0521 ± 0.00089 | 0.146 ± 0.014 | 0.264 ± 0.014 |  |  | 
22 | TGAPL | 0.0604 ± 0.0053 | 0.109 ± 0.013 | 0.301 ± 0.034 |  |  | 

Row | Variant | sfGFP reporter fluorescence [1] | sfGFP reporter fluorescence ([2]; ligand: 1 µM Pb) | sfGFP reporter fluorescence ([2]; ligand: 30 µM Zn) | sfGFP reporter fluorescence [3] | sfGFP reporter fluorescence ([4]; ligand: 1 µM Pb) | sfGFP reporter fluorescence ([4]; ligand: 30 µM Zn)
23 | TGDDP D64T R111A | 0.09 ± 0.012 | 0.212 ± 0.024 | 2.38 ± 0.096 |  |  | 
24 | TGDDP D64T R111L | 0.0779 ± 0.0063 | 0.151 ± 0.011 | 1.9 ± 0.12 |  |  | 
25 | NGCAP S130A | 0.0466 ± 0.011 | 0.0819 ± 0.0045 | 0.429 ± 0.066 |  |  | 
26 | NADPP V108L L129M | 0.0617 ± 0.0065 | 0.0681 ± 0.0059 | 0.734 ± 0.067 |  |  | 
27 | TGAAP | 0.0444 ± 0.0012 | 0.0747 ± 0.0046 | 0.359 ± 0.0081 |  |  | 
28 | NGADY L107C | 1.36 ± 0.23 | 2.4 ± 0.18 | 3.25 ± 0.18 |  |  | 
29 | KNRCMDDP P61N |  |  |  | 2.26 ± 0.13 | 2.97 ± 0.17 | 2.85 ± 0.064
30 | DNKCGADY G124A |  |  |  | 0.267 ± 0.013 | 1.31 ± 0.084 | 2.05 ± 0.041
31 | KFVLGDDP I90A H106A |  |  |  | 0.0469 ± 0.002 | 0.441 ± 0.013 | 0.0549 ± 0.0013
32 | LIKLGDDP V16C M60V E81A R111A |  |  |  | 0.0752 ± 0.0081 | 0.0783 ± 0.012 | 0.0505 ± 0.0042
33 | DTKLGMPP V108L |  |  |  | 0.0413 ± 0.00089 | 0.144 ± 0.0074 | 0.187 ± 0.0045
34 | DCVLGDDP V16C H54A |  |  |  | 0.0426 ± 0.0029 | 0.127 ± 0.0026 | 0.0484 ± 0.0029
35 | DNRLHCDL E109L |  |  |  | 0.0447 ± 0.0052 | 0.094 ± 0.0039 | 0.23 ± 0.0064
36 | DTKLGDPR V108L |  |  |  | 0.043 ± 0.0024 | 0.0866 ± 0.0042 | 0.142 ± 0.0031
37 | KNVCGDDP M60L E81A |  |  |  | 2.61 ± 0.12 | 3.41 ± 0.23 | 2.76 ± 0.4
38 | DTKCGCDA |  |  |  | 0.126 ± 0.0021 | 1.6 ± 0.12 | 1.51 ± 0.051
39 | LIVCGAAP V16C H54C C55P H106L |  |  |  | 0.0465 ± 0.0015 | 0.0427 ± 0.0018 | 0.0473 ± 0.0049
40 | LIVCGAAP V16C H54C C55P H106A |  |  |  | 0.0452 ± 0.0017 | 0.0428 ± 0.0019 | 0.0456 ± 0.0037
41 | KFVLGDDT H106A |  |  |  | 0.0446 ± 0.0026 | 0.549 ± 0.023 | 0.095 ± 0.0055
42 | DNKCMDAA D87E |  |  |  | 0.936 ± 0.1 | 2.16 ± 0.15 | 2.28 ± 0.19
43 | DTKLGSPP V108L |  |  |  | 0.0404 ± 0.0007 | 0.127 ± 0.0092 | 0.186 ± 0.0066
44 | DTKCGADI |  |  |  | 0.227 ± 0.0097 | 1.54 ± 0.036 | 2.16 ± 0.09
